According to patent US20210147523A1 (TEIJIN PHARMA, published 2021):

Target: T1, human SPNS2 D128A mutant (human, UniProt Q8IVW8 1-549)
T1 sequence: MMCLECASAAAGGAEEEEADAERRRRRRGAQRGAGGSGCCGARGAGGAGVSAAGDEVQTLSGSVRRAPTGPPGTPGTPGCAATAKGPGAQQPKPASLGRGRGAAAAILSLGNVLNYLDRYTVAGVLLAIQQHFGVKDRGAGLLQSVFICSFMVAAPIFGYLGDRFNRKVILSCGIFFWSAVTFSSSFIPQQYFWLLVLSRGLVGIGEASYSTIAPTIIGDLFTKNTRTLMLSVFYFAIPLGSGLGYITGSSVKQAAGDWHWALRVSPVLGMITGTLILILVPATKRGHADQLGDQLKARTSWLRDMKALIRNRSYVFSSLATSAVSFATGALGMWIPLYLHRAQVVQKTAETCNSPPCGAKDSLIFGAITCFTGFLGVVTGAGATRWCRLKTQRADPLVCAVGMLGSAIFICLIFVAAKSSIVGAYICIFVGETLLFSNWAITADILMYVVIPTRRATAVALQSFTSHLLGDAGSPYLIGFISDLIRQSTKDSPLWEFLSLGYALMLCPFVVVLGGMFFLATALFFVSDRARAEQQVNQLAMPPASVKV
Test: flow cytometry

B1: 53-0707E (antibody, IgG2b, V domains shown)
VH: EVQLQQSGAELVRPRTSVKLSCKVSGDSITRYYVHFVKQRPGQGLEWIGRIDPEDDTTKYSEKFKKKATLTADASSNTAYLIFSGLTSEDTATYFCSTLTGLDYWGQGVMVTVSS
VL: DIQMTQSPPVLSTSVGDRVTLRCKASQNVHSKLDWYQQKHGEAPKLLIYYTHNLQTGIPSRFSGSGSGTDYTLTISSLQPEDVATYYCFQYYSGWTFGGGTKLEMKR
binding ratio vs native type: < 0.5 ratio
